Data: patent publication US7718413B2, “Glycosylation variants of BACE” (Elan Pharmaceuticals, Inc., priority 2003, dated 2010)
“And” between values parts separate entries of the source, which are not always exact repeats. Equal values may be shown once.

Test system: MBP-C125Swe
Assay: β-Secretase assay: cleavage of substrate MBP-C125Swe, ELISA read-out
Assay type: biochemical
Settings: 0.02 μL BACE, MBP-C125Swe 220 nM, one hour, 37° C., pH 4.5; for Cleavage Product: group mean of 6 samples; for Activity / Substrate Conversion: group mean
Source text: Peptide substrate MBP-C125Swe was used for all assays. MBP-C125Swe is a bacterial fusion protein containing maltose binding protein MBP fused to the C-terminal 125 amino acids of the Swedish variant (Lys670Asn, Met671Leu double mutation) of APP. Sinha et al (1999). The C-terminal 125 amino acids were cloned into the expression vector pMALc (New England Biolabs) and transfected into E. coli. The fusion proteins were induced and solubilized by sonication of the pelleted bacteria. The proteins were purified by affinity chromatography on amylose-agarose, made up to 3 M guanidine, and stored in 10 mM Tris, pH 7.5, 0.2% Triton X-100, and 0.15 M guanidine.
All digests were done with 0.02 μL BACE (Δ3, 0.69 μM; Δ2,3 0.77 μM; wild type 0.66 μM) at 37° C. in a total volume of 50 μL 0.06% Triton X-100 and 20 mM sodium acetate, pH 4.5. Samples were incubated with MBP-C125Swe substrate (10 μg/mL, 220 nM) for one hour. Digests were assayed in an ELISA assay, capturing with antibody to MBP and detecting with biotinylated Sw192, a neo-epitope specific antibody recognizing the free C-terminal leucine of the N-terminal product of β-secretase cleavage of the APPSwe sequence. See Seubert. P. et al. Nature 361:260-263 (1993), and Knops, J. et al. J. Biol. Chem. 270:2419-2422 (1995). Product was allowed to bind for 24 hours at 4° C., then quantitated with streptavidin-horse radish peroxidase. Biotinylated peptide corresponding to the N-terminal cleavage product was synthesized and used as a standard.
These values were converted from the above data by the following equation: nM product/hr (ng enzyme)×45 ng enzyme/pm enz× 1/220 nM substrate×⅓,660 sec/hr×50,000 nL/reaction.

Row | Cleavage Product | Molecule | Activity | Substrate Conversion
1 | 109 pM and 108 pM | delta 2, 3: BACE variant S174I and N223A (SEQ ID NO:3), made on the 452Flag soluble truncated BACE template (protein, Flag tag; Human BACE with serine to isoleucine (S174I) and asparagine to alanine (N223A) mutations.) ETDEEPEEPGRRGSFVEMVDNLRGKSGQGYYVEMTVGSPPQTLNILVDTGSSNFAVGAAPHPFLHRYYQRQLSSTYRDLRKGVYVPYTQGKWEGELGTDLVSIPHGPNVTVRANIAAITESDKFFINGINWEGILGLAYAEIARPDDSLEPFFDSLVKQTHVPNLFSLQLCGAGFPLAQSEVLASVGGSMIIGGIDHSLYTGSLWYTPIRREWYYEVIIVRVEINGQDLKMDCKEYNYDKSIVDSGTTNLRLPKKVFEAAVKSIKAASSTEKFPDGFWLGEQLVCWQAGTTPWNIFPVISLYLMGEVTNQSFRITILPQQYLRPVEDVATSQDDCYKFAISQSSTGTVMGAVIMEGFYVVFDRARKRIGFAVSACHVHDEFRTAAVEGPFVTLDMEDCGYNIPQTD | 15,753 pM/h/ng enz and 15,662 pM/h/ng enz | 5.19% and 5.16%
2 | 119 pM and 126 pM | delta 3: BACE variant N223A (SEQ ID NO:2), made on the 452Flag soluble truncated BACE template (protein, Flag tag; Human BACE with asparagine to alanine (N223A) mutation.) ETDEEPEEPGRRGSFVEMVDNLRGKSGQGYYVEMTVGSPPQTLNILVDTGSSNFAVGAAPHPFLHRYYQRQLSSTYRDLRKGVYVPYTQGKWEGELGTDLVSIPHGPNVTVRANIAAITESDKFFINGSNWEGILGLAYAEIARPDDSLEPFFDSLVKQTHVPNLFSLQLCGAGFPLAQSEVLASVGGSMIIGGIDHSLYTGSLWYTPIRREWYYEVIIVRVEINGQDLKMDCKEYNYDKSIVDSGTTNLRLPKKVFEAAVKSIKAASSTEKFPDGFWLGEQLVCWQAGTTPWNIFPVISLYLMGEVTNQSFRITILPQQYLRPVEDVATSQDDCYKFAISQSSTGTVMGAVIMEGFYVVFDRARKRIGFAVSACHVHDEFRTAAVEGPFVTLDMEDCGYNIPQTD | 19,071 pM/h/ng enz and 20,173 pM/h/ng enz | 5.68% and 6.01%
3 | 85 pM and 90 pM | wild type: fully glycosylated soluble BACE truncated after residue 451 with Flag sequence (protein, left off: small tags and cut ends) TQHGIRLPLRSGLGGAPLGLRLPRETDEEPEEPGRRGSFVEMVDNLRGKSGQGYYVEMTVGSPPQTLNILVDTGSSNFAVGAAPHPFLHRYYQRQLSSTYRDLRKGVYVPYTQGKWEGELGTDLVSIPHGPNVTVRANIAAITESDKFFINGSNWEGILGLAYAEIARPDDSLEPFFDSLVKQTHVPNLFSLQLCGAGFPLNQSEVLASVGGSMIIGGIDHSLYTGSLWYTPIRREWYYEVIIVRVEINGQDLKMDCKEYNYDKSIVDSGTTNLRLPKKVFEAAVKSIKAASSTEKFPDGFWLGEQLVCWQAGTTPWNIFPVISLYLMGEVTNQSFRITILPQQYLRPVEDVATSQDDCYKFAISQSSTGTVMGAVIMEGFYVVFDRARKRIGFAVSACHVHDEFRTAAVEGPFVTLDMEDCGYNIPQTD | 14,308 pM/h/ng enz and 15,177 pM/h/ng enz | 4.05% and 4.30%
